Biological target: GST-Ras^V12(GTPγS) agarose (UniProt P01112)
Test: GST-Ras^V12 agarose pull-down from COS cell lysate, anti-MEKK immunoblot

fold binding relative to GST-Ras^V12(GDP): > 5 fold
B1: MEKK1 (protein encoded by p-MEKK1, transiently expressed in COS cells) (enzyme)
chain: MVTAVPAVFSKLVTMLNASGSTHFTRMRRRLMAIADEVEIAEVIQLGVEDTVDGHQDSLQAVAPTSCLENSSLEHTVHREKTGKGLSATRLSASSEDISDRLAGVSVGLPSSTTTEQPKPAVQTKGRPHSQCLNSSPLSHAQLMFPAPSAPCSSAPSVPDISKHRPQAFVPCKIPSASPQTQRKFSLQFQRNCSEHRDSDQLSPVFTQSRPPPSSNIHRPKPSRPVPGSTSKLGDATKSSMTLDLGSASRCDDSFGGGGNSGNAVIPSDETVFTPVEDKCRLDVNTELNSSIEDLLEASMPSSDTTVTFKSEVAVLSPEKAENDDTYKDDVNHNQKCKEKMEAEEEEALAIAMAMSASQDALPIVPQLQVENGEDIIIIQQDTPETLPGHTKAKQPYREDAEWLKGQQIGLGAFSSCYQAQDVGTGTLMAVKQVTYVRNTSSEQEEVVEALREEIRMMGHLNHPNIIRMLGATCEKSNYNLFIEWMAGGSVAHLLSKYGAFKESVVINYTEQLLRGLSYLHENQIIHRDVKGANLLIDSTGQRLRIADFGAAARLASKGTGAGEFQGQLLGTIAFMAPEVLRGQQYGRSCDVWSVGCAIIEMACAKPPWNAEKHSNHLALIFKIASATTAPSIPSHLSPGLRDVAVRCLELQPQDRPPSRELLKHPVFRTTW

From patent publication US20080201790A1, “Method and product for regulating cell responsiveness to external signals” (priority 1993, published 2008)
